# Measured values from US20250340613A1 (JOINT STOCK COMPANY BIOCAD, published 2025).
# T1: hisOX40, Tumor necrosis factor receptor superfamily member 4 (Homo sapiens) aa 26-210 (Homo sapiens, UniProt P43489 26-210)
# T1 construct: range 26-210; The tag is put first only because the name begins with His; not shown: His tag as the name implies
# T1 sequence (looked up): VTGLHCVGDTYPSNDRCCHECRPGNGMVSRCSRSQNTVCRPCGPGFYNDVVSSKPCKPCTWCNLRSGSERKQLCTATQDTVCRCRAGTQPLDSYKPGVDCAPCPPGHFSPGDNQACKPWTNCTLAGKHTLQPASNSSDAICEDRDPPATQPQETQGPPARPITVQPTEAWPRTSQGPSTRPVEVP
# T2: C-Avi-His-TEVs-HSA_hBCMA, Tumor necrosis factor receptor superfamily member 17 (Homo sapiens) aa 1-54 (Homo sapiens, UniProt Q02223 1-54)
# T2 construct: range 1-54; not shown: Avi, His, TEV site and HSA parts as the name implies
# T2 sequence (looked up): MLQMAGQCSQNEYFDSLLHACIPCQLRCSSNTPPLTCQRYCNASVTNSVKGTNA
# T3: IL5R-His, Interleukin-5 receptor subunit alpha (Homo sapiens) aa 22-342 (Homo sapiens, UniProt Q01344 22-342)
# T3 construct: not shown: His tag as the name implies
# T3 sequence (looked up): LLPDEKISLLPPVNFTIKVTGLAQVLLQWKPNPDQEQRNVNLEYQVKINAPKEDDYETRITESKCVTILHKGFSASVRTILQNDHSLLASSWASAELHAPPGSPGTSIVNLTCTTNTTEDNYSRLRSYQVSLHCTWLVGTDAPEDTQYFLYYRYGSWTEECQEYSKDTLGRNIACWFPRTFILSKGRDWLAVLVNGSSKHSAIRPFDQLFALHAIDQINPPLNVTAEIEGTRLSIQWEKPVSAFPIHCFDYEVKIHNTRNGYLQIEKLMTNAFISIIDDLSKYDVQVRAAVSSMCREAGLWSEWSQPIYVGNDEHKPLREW
# T4: hCD38-Avi, ADP-ribosyl cyclase/cyclic ADP-ribose hydrolase 1 (Homo sapiens) aa 43-300 (Homo sapiens, UniProt P28907 43-300)
# T4 construct: range 43-300; not shown: Avi tag as the name implies
# T4 sequence (looked up): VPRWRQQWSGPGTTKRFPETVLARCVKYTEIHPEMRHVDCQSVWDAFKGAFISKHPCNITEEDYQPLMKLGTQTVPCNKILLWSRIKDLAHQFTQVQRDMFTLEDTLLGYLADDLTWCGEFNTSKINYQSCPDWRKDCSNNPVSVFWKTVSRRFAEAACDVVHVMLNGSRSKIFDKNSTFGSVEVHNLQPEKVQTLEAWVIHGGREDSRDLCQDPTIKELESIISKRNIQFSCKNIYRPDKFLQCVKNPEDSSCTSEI
# B1: 02-007, bivalent bispecific chimeric antibody that specifically binds to PD1 and CSF1R (bispecific antibody, human IgG1, kappa, L234A L235A)
# heavy 1: QVQLVESGGGLVRPGGSLRLSCAASEFTFDDYAMSWVRQAPGKGLEWVSAISWNGGSTNYADSVKGRFTISRDNAKNSLYLQMNSLRAEDTALYYCASTVEVAHRRLYKYLEVWGQGTLVTVSSASTKGPSVFPLAPSSKSTSGGTAALGCLVKDYFPEPVTVSWNSGALTSGVHTFPAVLQSSGLYSLSSVVTVPSSSLGTQTYICNVNHKPSNTKVDKRVEPKSCDKTHTCPPCPAPEAAGGPSVFLFPPKPKDTLYITREPEVTCVVVDVSHEDPEVKFNWYVDGVEVHNAKTKPREEQYNSTYRVVSVLTVLHQDWLNGKEYKCKVSNKALPAPIEKTISKAKGQPREPQVCTLPPSRDELTKNQVSLSCAVKGFYPSDIAVEWESNGQPENNYKTTPPVLDSDGSFFLVSKLTVDKSRWQQGNVFSCSVMHEALHNHYTQKSLSLSPGK
# light 1: QAGLTQPPSVSVAPGQTARITCGGNNIGSKSVHWYQQKPGQAPVLVVYGDSDRPSGIPERFSGSNSGNTATLTISRVEAGDEADYYCQVWDISSDHVVFGGGTQLTVLRTVAAPSVFIFPPSDEQLKSGTASVVCLLNNFYPREAKVQWKVDNALQSGNSQESVTEQDSKDSTYSLSSTLTLSKADYEKHKVYACEVTHQGLSSPVTKSFNRGEC
# heavy 2: not shown
# light 2: QPVLTQPLSVSVALGQTARITCGGNNIGSKNVHWYQQKPGQAPVLVIYRDSNRPSGIPERFSGSNSGNTATLTISRAQAGDEADYYCQVWDSSTAVFGTGTKLTVLQQRQVKPEAWLSSGPSPGPGRLQLVCHVSGFYPKPVWVMWMRGEQEQQGTQLGDILPNANWTWYLRATLDVADGEAAGLSCRVKHSSLEGQDIILYWRGSC
# notes: Produced in CHO cells
# B2: 02-006, bivalent bispecific chimeric antibody that specifically binds to PD1 and CSF1R (bispecific antibody, human IgG1, kappa, L234A L235A)
# heavy 1: QVQLVQSGGGLVQPGGSLRLSCAASGFTFSSYWMYWVRQVPGKGLEWVSAIDTGGGRTYYADSVKGRFAISRVNAKNTMYLQMNSLRAEDTAVYYCARDEGGGTGWGVLKDWPYGLDAWGQGTLVTVSSASTKGPSVFPLAPSSKSTSGGTAALGCLVKDYFPEPVTVSWNSGALTSGVHTFPAVLQSSGLYSLSSVVTVPSSSLGTQTYICNVNHKPSNTKVDKRVEPKSCDKTHTCPPCPAPEAAGGPSVFLFPPKPKDTLYITREPEVTCVVVDVSHEDPEVKFNWYVDGVEVHNAKTKPREEQYNSTYRVVSVLTVLHQDWLNGKEYKCKVSNKALPAPIEKTISKAKGQPREPQVCTLPPSRDELTKNQVSLSCAVKGFYPSDIAVEWESNGQPENNYKTTPPVLDSDGSFFLVSKLTVDKSRWQQGNVFSCSVMHEALHNHYTQKSLSLSPGK
# light 1: QPVLTQPLSVSVALGQTARITCGGNNIGSKNVHWYQQKPGQAPVLVIYRDSNRPSGIPERFSGSNSGNTATLTISRAQAGDEADYYCQVWDSSTAVFGTGTKLTVLQRTVAAPSVFIFPPSDEQLKSGTASVVCLLNNFYPREAKVQWKVDNALQSGNSQESVTEQDSKDSTYSLSSTLTLSKADYEKHKVYACEVTHQGLSSPVTKSFNRGEC
# heavy 2: not shown
# light 2: QAGLTQPPSVSVAPGQTARITCGGNNIGSKSVHWYQQKPGQAPVLVVYGDSDRPSGIPERFSGSNSGNTATLTISRVEAGDEADYYCQVWDISSDHVVFGGGTQLTVLQRQVKPEAWLSSGPSPGPGRLQLVCHVSGFYPKPVWVMWMRGEQEQQGTQLGDILPNANWTWYLRATLDVADGEAAGLSCRVKHSSLEGQDIILYWRGSC
# notes: Produced in CHO cells
# B3: 02-008, bivalent bispecific chimeric antibody that specifically binds to CD20 and CSF1R (bispecific antibody, human IgG1, kappa, L234A L235A)
# heavy 1: EVQLVESGGGLVQPGGSLRLSCAASGYTFTSYNMHWVRQAPGKGLEWVGAIYPGNGDTSYNQKFKGRFTISVDKSKNTLYLQMNSLRAEDTAVYYCARVVYYSNSYWYFDVWGQGTLVTVSSASTKGPSVFPLAPSSKSTSGGTAALGCLVKDYFPEPVTVSWNSGALTSGVHTFPAVLQSSGLYSLSSVVTVPSSSLGTQTYICNVNHKPSNTKVDKRVEPKSCDKTHTCPPCPAPEAAGGPSVFLFPPKPKDTLYITREPEVTCVVVDVSHEDPEVKFNWYVDGVEVHNAKTKPREEQYNSTYRVVSVLTVLHQDWLNGKEYKCKVSNKALPAPIEKTISKAKGQPREPQVCTLPPSRDELTKNQVSLSCAVKGFYPSDIAVEWESNGQPENNYKTTPPVLDSDGSFFLVSKLTVDKSRWQQGNVFSCSVMHEALHNHYTQKSLSLSPGK
# light 1: DIQMTQSPSSLSASVGDRVTITCRASSSVSYMHWYQQKPGKAPKPLIYAPSNLASGVPSRFSGSGSGTDFTLTISSLQPEDFATYYCQQWSFNPPTFGQGTKVEIKRTVAAPSVFIFPPSDEQLKSGTASVVCLLNNFYPREAKVQWKVDNALQSGNSQESVTEQDSKDSTYSLSSTLTLSKADYEKHKVYACEVTHQGLSSPVTKSFNRGEC
# heavy 2: not shown
# light 2: B2 light 2
# notes: Produced in CHO cells
# Legend:
# [1] = biological target: T1, hisOX40, Tumor necrosis factor receptor …; assay: BLI Octet RED 384; antibody on ProA sensor, antigen 30 ug/ml (1310 nM); response at end of association
# Experimental: (§1) Experimental study of nonspecific binding of bispecific chimeric antibodies to non-target antigens was performed on Forte Bio Octert RED 384. Protein A (ProA) biosensors (ForteBio) were immersed into a solution containing antibodies at a concentration of 10 μg/ml for 150 seconds to immobilize same. The baseline was recorded in a 1×KB solution for 30 seconds. The antibody-loaded sensors were then immersed into wells containing non-target antigens at a concentration of 30 μg/ml for 150 seconds. Complex dissociation was then recorded for 30 seconds.
# (§2) The reference sensors went through all the steps as the sensors used to record analyte sensograms did, with the exception of the association step—at the association step, the sensors were immersed in a kinetic buffer solution without analyte (the reference sensor signals were measured in parallel with the recording of the main sensograms). The reference signal was subtracted from the signal received on sensors interacting with the analyte during the processing of sensograms.
# (§3) Sensograms were processed using ForteBio Octet Data Analysisn 9.0 software. To report no non-specific interaction, the recorded signal level was checked at the end of the association step (the response parameter).
# [2] = biological target: T5, extracellular domain of the human PD-1 protein (hPD1ex-H6F) (Homo sapiens, UniProt Q15116 21-170); assay: BLI Octet RED 384; antibody on ProA sensor, antigen 30 ug/ml (1456 nM); response at end of association
# T5 construct: Molecular weight 20.6 kDa; made in CHO cells; also called hPDlex-H6F; not shown: C-terminal His and FLAG tags
# T5 sequence (Q15116 21-170 limits assumed, form in doubt): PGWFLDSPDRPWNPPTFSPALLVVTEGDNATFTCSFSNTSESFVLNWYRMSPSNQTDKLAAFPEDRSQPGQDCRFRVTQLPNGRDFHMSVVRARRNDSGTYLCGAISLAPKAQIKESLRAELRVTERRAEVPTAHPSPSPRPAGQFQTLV
# Experimental: as §1, §2, §3
# [3] = biological target: T2, C-Avi-His-TEVs-HSA_hBCMA, Tumor …; assay: BLI Octet RED 384; antibody on ProA sensor, antigen 30 ug/ml (391.2 nM); response at end of association
# Experimental: as §1, §2, §3
# [4] = biological target: T6, Macaca CSF1R_C-His, Macrophage colony-stimulating factor 1 receptor (Macaca mulatta) aa 20-513 (Macaca mulatta); assay: BLI Octet RED 384; antibody on ProA sensor, antigen 30 ug/ml (534.8 nM); response at end of association
# T6 construct: range 20-513
# Experimental: as §1, §2, §3
# [5] = biological target: T7, extracellular domain of the human CSF1R protein (hCSF1R_His) (Homo sapiens, UniProt P07333 20-512); assay: BLI Octet RED 384; antibody on ProA sensor, antigen 30 ug/ml (522.5 nM); response at end of association
# T7 construct: range 20-512; Molecular weight 57.4 kDa; made in CHO cells; also called hCSF1_His; not shown: C-terminal His and FLAG tags
# T7 sequence (P07333 20-512 limits assumed): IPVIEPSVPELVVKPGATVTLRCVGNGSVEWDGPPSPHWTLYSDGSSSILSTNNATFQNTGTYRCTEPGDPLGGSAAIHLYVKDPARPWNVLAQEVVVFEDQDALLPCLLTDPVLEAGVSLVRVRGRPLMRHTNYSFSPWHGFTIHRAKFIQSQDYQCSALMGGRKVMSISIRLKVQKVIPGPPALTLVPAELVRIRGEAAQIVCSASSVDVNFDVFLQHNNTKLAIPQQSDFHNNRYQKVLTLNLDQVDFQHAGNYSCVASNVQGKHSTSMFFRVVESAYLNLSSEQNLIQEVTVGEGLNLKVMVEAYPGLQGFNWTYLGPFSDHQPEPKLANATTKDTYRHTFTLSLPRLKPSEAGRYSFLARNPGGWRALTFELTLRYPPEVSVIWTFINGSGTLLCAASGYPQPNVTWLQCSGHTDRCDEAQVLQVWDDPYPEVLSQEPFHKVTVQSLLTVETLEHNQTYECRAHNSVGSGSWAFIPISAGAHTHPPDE
# Experimental: as §1, §2, §3
# [6] = biological target: T3, IL5R-His, Interleukin-5 receptor …; assay: BLI Octet RED 384; antibody on ProA sensor, antigen 30 ug/ml (757.6 nM); response at end of association
# Experimental: as §1, §2, §3
# [7] = biological target: T4, hCD38-Avi, ADP-ribosyl cyclase/cyclic …; assay: BLI Octet RED 384; antibody on ProA sensor, antigen 30 ug/ml (854.7 nM); response at end of association
# Experimental: as §1, §2, §3
# [8] = biological target: T8, Her3-H6F, Receptor tyrosine-protein kinase erbB-3 (Homo sapiens) aa 21-643 (Homo sapiens, UniProt P21860 21-643); assay: BLI Octet RED 384; antibody on ProA sensor, antigen 30 ug/ml (420.8 nM); response at end of association
# T8 construct: not shown: His and FLAG tags implied by the name 'H6F'
# T8 sequence (P21860 21-643 limits assumed): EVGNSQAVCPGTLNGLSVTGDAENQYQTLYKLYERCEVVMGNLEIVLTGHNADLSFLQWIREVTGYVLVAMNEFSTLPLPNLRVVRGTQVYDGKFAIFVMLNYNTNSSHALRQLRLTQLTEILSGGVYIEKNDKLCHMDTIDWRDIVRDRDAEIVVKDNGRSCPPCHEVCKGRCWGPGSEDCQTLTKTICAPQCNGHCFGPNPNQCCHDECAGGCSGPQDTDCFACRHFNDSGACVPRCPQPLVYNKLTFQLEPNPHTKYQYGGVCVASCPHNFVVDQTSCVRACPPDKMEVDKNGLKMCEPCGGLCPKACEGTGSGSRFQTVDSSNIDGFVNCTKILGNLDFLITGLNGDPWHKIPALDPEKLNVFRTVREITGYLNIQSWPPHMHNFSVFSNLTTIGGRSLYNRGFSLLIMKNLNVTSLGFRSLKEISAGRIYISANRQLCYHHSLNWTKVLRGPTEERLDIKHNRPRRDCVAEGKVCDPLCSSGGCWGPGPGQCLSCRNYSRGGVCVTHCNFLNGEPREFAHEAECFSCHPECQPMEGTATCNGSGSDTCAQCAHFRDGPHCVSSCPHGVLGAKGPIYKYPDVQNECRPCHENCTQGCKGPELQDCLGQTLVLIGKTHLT
# Experimental: as §1, §2, §3
Binder,Signal level (nm) [1],Signal level (nm) [2],Signal level (nm) [3],Signal level (nm) [4],Signal level (nm) [5],Signal level (nm) [6],Signal level (nm) [7],Signal level (nm) [8]
B1,-0.0056 nm,0.172 nm,0.0061 nm,0.535 nm,0.537 nm,0.0221 nm,0.0088 nm,-0.0063 nm
B2,-0.0094 nm,0.144 nm,0.0009 nm,0.587 nm,0.573 nm,0.0153 nm,0.0158 nm,-0.0115 nm
B3,-0.012 nm,-0.0033 nm,-0.0023 nm,0.549 nm,0.548 nm,0.0098 nm,0.0028 nm,-0.0108 nm
